Changes are numbered by the printed parent chain. Each block holds one binder with its values, some of them ahead of it.
Legend:
CD33 on MOLM14 cells [1] = target: T1, CD33 on MOLM14 cells (human, UniProt P20138 18-364); assay: cell-based or functional assay
CD33 on MOLM14 cells [2] = target: T1, CD33 on MOLM14 cells; assay: flow cytometry on MOLM-14 (CD33+) cells, MFI against Fab concentration, secondary antibody alone subtracted
Protocol: Binding capacity is measured through MFI. MFI of secondary antibody alone was subtracted to account for background and non-specific staining.

[3] = target: T2, CAR-FITC (CD8 hinge), anti-FITC (FITC-E2 scFv) chimeric antigen receptor on T cells; assay: flow cytometry on anti-FITC CAR T cells, Alexa Fluor 647 anti-human IgG or anti-human kappa secondary antibody, MFI against concentration
T2 construct: FITC-E2 scFv, CD8 hinge and transmembrane region, 41BB and CD3 zeta; also called Anti FITC CAR-EC with CD8 hinge; anti-FITC CAR
Protocol: (§1) Cells were incubated with indicated switch antibodies at 4° C. for 30-60 min and washed twice with staining buffer (1% BSA in PBS). […] After several washes, samples were acquired on a BD LSR II or BD Accuri C6 and analyzed using FlowJo 7.6.2 software.
(§2) Briefly, cells were incubated with indicated switch antibodies at 4° C. for 30-60 min and washed twice with staining buffer (1% BSA in PBS). […] After several washes, samples were acquired on a BD LSR II or BD Accuri C6 and analyzed using FlowJo 7.6.2 software.

[4] = target: T2, CAR-FITC (CD8 hinge), anti-FITC …; assay: flow cytometry on anti-FITC CAR-T cells
Protocol: as §1, §2

T2 sequence (chain, as listed by the source mutant limits assumed): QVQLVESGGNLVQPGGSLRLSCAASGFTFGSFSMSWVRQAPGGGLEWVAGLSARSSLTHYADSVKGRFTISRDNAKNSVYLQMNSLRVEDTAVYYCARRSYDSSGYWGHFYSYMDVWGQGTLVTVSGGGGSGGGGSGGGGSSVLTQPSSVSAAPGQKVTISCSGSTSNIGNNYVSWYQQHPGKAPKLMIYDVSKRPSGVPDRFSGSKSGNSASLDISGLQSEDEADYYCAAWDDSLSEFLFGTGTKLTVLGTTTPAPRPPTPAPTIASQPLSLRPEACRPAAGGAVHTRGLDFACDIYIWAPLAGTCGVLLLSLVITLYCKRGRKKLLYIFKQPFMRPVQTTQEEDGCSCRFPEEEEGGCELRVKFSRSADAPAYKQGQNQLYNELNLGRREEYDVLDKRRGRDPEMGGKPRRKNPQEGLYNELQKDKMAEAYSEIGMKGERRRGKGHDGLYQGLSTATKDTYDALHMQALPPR
T1 sequence (P20138 18-364): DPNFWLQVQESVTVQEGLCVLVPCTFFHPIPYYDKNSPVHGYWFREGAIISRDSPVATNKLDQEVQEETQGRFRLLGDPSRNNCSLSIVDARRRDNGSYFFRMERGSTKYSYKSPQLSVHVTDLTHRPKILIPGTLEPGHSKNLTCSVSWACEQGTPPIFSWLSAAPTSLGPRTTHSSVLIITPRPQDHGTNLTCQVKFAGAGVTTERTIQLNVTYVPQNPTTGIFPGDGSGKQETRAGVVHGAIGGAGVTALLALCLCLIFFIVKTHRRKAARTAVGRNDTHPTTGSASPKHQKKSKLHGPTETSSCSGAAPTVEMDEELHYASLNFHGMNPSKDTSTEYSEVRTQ

B1: anti-CD33 hP67.6 AB-FITC switch (light chain G72 and heavy chain P75) (Fab, V domains shown)
VH: EVQLVQSGAEVKKPGSSVKVSCKASGYTITDSNIHWVRQAPGQSLEWIGYIYPYNGGTDYNQKFKNRATLTVDNXTNTAYMELSSLRSEDTAFYYCVNGNPWLAYWGQGTLVTVSS
VL: DIQLTQSPSTLSASVGDRVTITCRASESLDNYGIRFLTWFQQKPGKAPKLLMYAASNQGSGVPSRFSGSGSXTEFTLTISSLQPDDFATYYCQQTKEVPWSFGQGTKVEVKR
modifications: position 75 = pAzF conjugated with a cyclooctyne-PEG-FITC linker; position 72 = pAzF conjugated with a cyclooctyne-PEG-FITC linker
EC50 of cytotoxicity of anti-FITC CAR-T cells against MOLM14 cells (CD33 on MOLM14 cells [1]): 0.0065 nM | efficacy in MOLM14 against the optimized anti-CD33 hM195 CD-FITC switch (CD33 on MOLM14 cells [1]): ~3 fold

B2: anti-CD33 Fab (clone hP67.6) (Fab, V domains shown)
VH: B1 VH with X75P
VL: B1 VL with X72G
EC50 (CD33 on MOLM14 cells [2]): 3.96 nM

B3: anti-CD33 Fab (clone hM195) (Fab, V domains shown)
VH: QVQLVQSGAEVKKPGSSVKVSCKASGYTFTDYNMHWVRQAPGQGLEWIGYIYPYNGGTGYNQKFKSKATITADESTNTAYMELSSLRSEDTAVYYCARGRPAMDYWGQGTLVTVSS
VL: DIQMTQSPSSLSASVGDRVTITCRASESVDNYGISFMNWFQQKPGKAPKLLIYAASNQGSGVPSRFSGSGSGTDFTLNISSLQPDDFATYYCQQSKEVPWTFGQGTKVEIKR
EC50 (CD33 on MOLM14 cells [2]): 1800 nM

B6: anti-CD19 (FMC63) Fab A-FITC (light chain G68) (Fab, V domains shown)
VH: EVKLQESGPGLVAPSQSLSVTCTVSGVSLPDYGVSWIRQPPRKGLEWLGVIWGSETTYYNSALKSRLTIIKDNSKSQVFLKMNSLQTDDTAIYYCAKHYYYGGSYAMDYWGQGTSVTVSS
VL: DIQMTQTTSSLSASLGDRVTISCRASQDISKYLNWYQQKPDGTVKLLIYHTSRLHSGVPSRFSGSGSGTDYSLTISNLEQEDIATYFCQQGNTLPYTFGGGTKLEIKR
modifications: position 68 = pAzF conjugated with BCN-PEG4-FITC
notes: Monovalent, proximal site; also called LG68
EC50 [3]: 0.0094 nM

B12: anti-CD19 (FMC63) Fab D-FITC (heavy chain A121) (Fab, V domains shown)
VH: B6 VH
VL: B6 VL
modifications: position 121 of the whole heavy chain = pAzF conjugated with BCN-PEG4-FITC
notes: Monovalent, medial site; also called HA121
EC50 [3]: 0.0095 nM

The next lines start with the values.

EC50 [3]: 0.0029 nM
B4: random anti-CD19 (FMC63) Fab FITC conjugate (Fab, V domains shown)
VH: B6 VH
VL: B6 VL
modifications: FITC-PEG4 by NHS chemistry at the N-terminal amino group (~58% of the conjugates); FITC-PEG4 by NHS chemistry at lysines, largely K31 (~20%) and K141 (~68.4%); paragraph 560 prints positions 31 and 145
notes: Heterogeneous mixture, average FITC to antibody ratio of 2; also called random conjugate; Random (DAR 2)

EC50 [3]: 0.0064 nM
B5: anti-CD19 (FMC63) Fab C-FITC (light chain T109) (Fab, V domains shown)
VH: B6 VH
VL: B6 VL
modifications: position 109 of the whole light chain = pAzF conjugated with BCN-PEG4-FITC
notes: Monovalent, medial site; also called LT109

EC50 [3]: 0.0029 nM | EC50 [4]: ~3 nM
B7: anti-CD19 (FMC63) Fab EF-FITC (light chain S202 and heavy chain K136) (Fab, V domains shown)
VH: B6 VH
VL: B6 VL
modifications: position 136 of the whole heavy chain = pAzF conjugated with BCN-PEG4-FITC; position 202 of the whole light chain = pAzF conjugated with BCN-PEG4-FITC
notes: Bivalent, distal sites; also called LS202/HK136

EC50 [3]: 0.007 nM
B8: anti-CD19 (FMC63) Fab E-FITC (light chain S202) (Fab, V domains shown)
VH: B6 VH
VL: B6 VL
modifications: position 202 of the whole light chain = pAzF conjugated with BCN-PEG4-FITC
notes: Monovalent, distal site; also called LS202

EC50 [3]: 0.0091 nM
B9: anti-CD19 (FMC63) Fab B-FITC (heavy chain S74) (Fab, V domains shown)
VH: B6 VH
VL: B6 VL
modifications: position 74 = pAzF conjugated with BCN-PEG4-FITC
notes: Monovalent, proximal site; also called HS74

EC50 [3]: 0.0092 nM
B10: anti-CD19 (FMC63) Fab F-FITC (heavy chain K136) (Fab, V domains shown)
VH: B6 VH
VL: B6 VL
modifications: position 136 of the whole heavy chain = pAzF conjugated with BCN-PEG4-FITC
notes: Monovalent, distal site; also called HK136

EC50 [3]: 0.0034 nM
B11: anti-CD19 (FMC63) Fab AB-FITC (light chain G68 and heavy chain S74) (Fab, V domains shown)
VH: B6 VH
VL: B6 VL
modifications: position 74 = pAzF conjugated with BCN-PEG4-FITC; position 68 = pAzF conjugated with BCN-PEG4-FITC
notes: Bivalent, proximal sites; also called anti-CD19 AB-FITC; LG68/HS74
